Data as given in PMC5779224, “Autoinhibition of ankyrin-B/G membrane target bindings by intrinsically disordered segments from the tail regions” (eLife, 2017).
Residue numbers refer to the chain shown, from its start.

Key:
[1] = target: T1, AnkB_MBD (AnkB ANK repeats only, aa 28–827) (human, UniProt Q01484-2 28-827); assay: ITC; VP-ITC MicroCal, 25 °C; proteins in 50 mM Tris-HCl pH 7.8, 1 mM DTT, 1 mM EDTA with 100 mM or 500 mM NaCl as required; who was titrated is not told; conditions: both partners purified
T1 construct: ankyrin-B (AnkB), human 220 kDa isoform, residues 28-827: the 24 ANK repeats (MBD), no linker; numbers count on: human 220 kDa AnkB NM_020977.3; Poor quality in 100 mM NaCl buffer; also called AnkB 28–827; source: E. coli BL21 (DE3), purified (Ni2+-NTA, size exclusion)
T1 sequence (looked up): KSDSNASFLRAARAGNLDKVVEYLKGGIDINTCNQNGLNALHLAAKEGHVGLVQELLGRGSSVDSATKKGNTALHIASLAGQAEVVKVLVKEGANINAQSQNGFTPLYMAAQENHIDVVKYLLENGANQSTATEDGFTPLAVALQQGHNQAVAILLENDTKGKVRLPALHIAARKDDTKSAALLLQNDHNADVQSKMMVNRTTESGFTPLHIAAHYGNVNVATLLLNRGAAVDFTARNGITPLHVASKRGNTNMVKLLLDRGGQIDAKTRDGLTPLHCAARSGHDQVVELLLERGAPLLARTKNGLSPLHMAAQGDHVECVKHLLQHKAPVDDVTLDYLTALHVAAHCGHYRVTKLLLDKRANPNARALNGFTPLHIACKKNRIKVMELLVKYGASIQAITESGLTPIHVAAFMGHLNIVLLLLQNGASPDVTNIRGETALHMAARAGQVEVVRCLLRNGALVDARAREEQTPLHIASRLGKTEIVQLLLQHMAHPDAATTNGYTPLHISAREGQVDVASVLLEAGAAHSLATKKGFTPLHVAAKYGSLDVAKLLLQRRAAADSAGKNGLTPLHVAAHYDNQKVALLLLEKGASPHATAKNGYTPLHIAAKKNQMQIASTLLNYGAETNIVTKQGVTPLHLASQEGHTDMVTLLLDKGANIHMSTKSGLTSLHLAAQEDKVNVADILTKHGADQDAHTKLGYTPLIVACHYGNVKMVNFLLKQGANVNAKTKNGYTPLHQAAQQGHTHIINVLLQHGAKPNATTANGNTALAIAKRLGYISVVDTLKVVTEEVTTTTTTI

[2] = target: T2, AnkB_MBD Asn595Ala (human, UniProt Q01484-2 28-827, Asn595Ala); assay: as above; conditions: both partners purified
T2 construct: ankyrin-B (AnkB), human 220 kDa isoform, MBD 28-827 with N595A in a finger loop; numbers count on: human 220 kDa AnkB NM_020977.3; source: E. coli BL21 (DE3), purified (Ni2+-NTA, size exclusion)
T2 sequence (looked up): T1 sequence (looked up) with N568A

B1: AnkB_AI-c (aa 828–852) (domain or fragment, human, UniProt Q01484-2 828-852, looked up)
chain: TEKHKLNVPETMTEVLDVSDEEGDD
notes: numbers count on: human 220 kDa AnkB NM_020977.3; source: E. coli BL21 (DE3), purified (Ni2+-NTA, size exclusion)
- binding result [1]: binds
- binding result [2]: binds
